Source: PMC5113752 (Protein expression and purification, 2015)

Target: the molecule itself
Assay: cross-linking

B1: p7 viroporin from hepatitis C virus strain H77 genotype 1a, in proteoliposomes (natural protein, hepatitis C virus genotype 1a strain H77, UniProt P27958 747-809, looked up)
chain: ALENLVILNAASLAGTHGLVSFLVFFCFAWYLKGRWVPGAVYALYGMWPLLLLLLALPQRAYA
  stoichiometry N: 6
